These are literature values, as cited in PMC6440808.

What is called Kd is the concentration at which binding is half-saturated.

The target of data set [1] is C4b (Homo sapiens) (UniProt P0C0L4).
The target is the same in data set [2]. This is another data set of the same source.

Where two headings read alike, the source gives them in different places.

UniProt P0C0L4, sequence (P0C0L4 20-1744, chain 1 of 2): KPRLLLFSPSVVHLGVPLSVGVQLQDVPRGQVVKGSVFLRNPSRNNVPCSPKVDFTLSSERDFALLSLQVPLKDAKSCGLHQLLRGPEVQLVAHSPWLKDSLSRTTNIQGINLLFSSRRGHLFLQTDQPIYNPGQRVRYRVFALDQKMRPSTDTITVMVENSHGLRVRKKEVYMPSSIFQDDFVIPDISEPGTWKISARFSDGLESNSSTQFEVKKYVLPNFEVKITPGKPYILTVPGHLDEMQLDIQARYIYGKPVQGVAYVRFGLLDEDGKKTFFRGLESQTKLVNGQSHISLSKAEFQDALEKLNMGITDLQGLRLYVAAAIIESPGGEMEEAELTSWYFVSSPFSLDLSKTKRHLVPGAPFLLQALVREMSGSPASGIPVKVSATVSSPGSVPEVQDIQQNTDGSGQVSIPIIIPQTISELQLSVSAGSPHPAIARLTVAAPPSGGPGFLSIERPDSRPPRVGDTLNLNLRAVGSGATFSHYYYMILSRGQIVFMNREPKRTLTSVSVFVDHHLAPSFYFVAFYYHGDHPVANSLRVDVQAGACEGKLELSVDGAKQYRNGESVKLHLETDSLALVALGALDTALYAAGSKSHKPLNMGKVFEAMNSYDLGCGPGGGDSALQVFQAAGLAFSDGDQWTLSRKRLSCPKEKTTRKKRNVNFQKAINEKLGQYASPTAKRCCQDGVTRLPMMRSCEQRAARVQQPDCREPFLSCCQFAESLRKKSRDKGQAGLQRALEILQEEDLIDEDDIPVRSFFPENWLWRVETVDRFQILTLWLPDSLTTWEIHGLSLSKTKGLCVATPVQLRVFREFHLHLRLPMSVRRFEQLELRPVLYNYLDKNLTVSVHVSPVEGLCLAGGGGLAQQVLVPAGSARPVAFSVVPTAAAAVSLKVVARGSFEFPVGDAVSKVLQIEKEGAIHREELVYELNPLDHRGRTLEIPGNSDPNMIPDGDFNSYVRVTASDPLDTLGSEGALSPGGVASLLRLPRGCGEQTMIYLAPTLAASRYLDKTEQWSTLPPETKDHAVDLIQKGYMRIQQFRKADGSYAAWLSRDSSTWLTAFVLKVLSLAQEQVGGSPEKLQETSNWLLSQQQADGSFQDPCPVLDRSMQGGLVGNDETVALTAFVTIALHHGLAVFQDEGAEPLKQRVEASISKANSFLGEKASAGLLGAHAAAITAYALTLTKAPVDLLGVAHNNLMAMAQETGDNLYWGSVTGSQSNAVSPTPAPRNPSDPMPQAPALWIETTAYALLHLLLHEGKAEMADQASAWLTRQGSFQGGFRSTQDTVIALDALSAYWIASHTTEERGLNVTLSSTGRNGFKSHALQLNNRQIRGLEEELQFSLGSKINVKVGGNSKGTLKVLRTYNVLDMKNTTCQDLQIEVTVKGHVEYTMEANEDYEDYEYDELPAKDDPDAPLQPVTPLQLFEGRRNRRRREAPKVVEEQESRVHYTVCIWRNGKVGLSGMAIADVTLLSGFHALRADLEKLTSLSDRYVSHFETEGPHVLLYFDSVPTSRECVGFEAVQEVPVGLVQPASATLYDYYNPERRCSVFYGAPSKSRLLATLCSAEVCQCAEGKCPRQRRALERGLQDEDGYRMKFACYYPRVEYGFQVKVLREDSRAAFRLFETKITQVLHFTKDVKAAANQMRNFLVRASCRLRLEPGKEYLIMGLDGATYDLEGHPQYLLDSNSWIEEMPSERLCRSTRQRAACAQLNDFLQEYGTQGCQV
UniProt P0C0L4, sequence (P0C0L5 20-1744, chain 2 of 2, further chain): as the sequence (P0C0L4 20-1744, chain 1 of 2) above, with A888T, D1054G, P1101L, C1102S, L1105I, D1106H, N1157S, V1188A, L1191R, S1267A counted along it

Take Eap34 domains 3-4 (from UniProt Q99QS1): the Kd in the data set with C4b (Homo sapiens) [1] is 0.525 µM.
With “Eap domain 3 or 4 (individual) domain 3 / domain 4 (from UniProt Q2FWW1)”, the Kd with C4b (Homo sapiens) [2] is 40 µM.
